From patent US20240301076A1 (CEPHALON, published 2024)

T1: human CXCR2 (human, UniProt P25025 1-360)
T1 construct: also called CXC chemokine receptor 2; hCXCR2
T1 sequence: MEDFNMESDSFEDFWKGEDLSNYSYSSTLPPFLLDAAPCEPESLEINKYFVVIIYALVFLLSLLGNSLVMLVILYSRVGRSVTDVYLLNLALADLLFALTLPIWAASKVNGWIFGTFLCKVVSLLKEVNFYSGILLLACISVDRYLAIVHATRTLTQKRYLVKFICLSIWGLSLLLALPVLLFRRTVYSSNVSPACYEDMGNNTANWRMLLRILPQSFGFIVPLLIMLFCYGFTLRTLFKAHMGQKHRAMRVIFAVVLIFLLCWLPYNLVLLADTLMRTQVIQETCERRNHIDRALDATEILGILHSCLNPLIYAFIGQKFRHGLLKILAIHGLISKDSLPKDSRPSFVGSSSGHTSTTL


Key:
[1] = target: T1, human CXCR2; assay: flow cytometry, CXCR2-transfected Expi293F cells
Protocol: (§1) Harvested cells were resuspended in FACS buffer (1×PBS+0.5% (w/v) bovine serum albumin (BSA)+2 mM EDTA pH 7.2). Approximately 2×10⁵ cells were added per well in a 96-well round-bottomed plate. Cells were pelleted by centrifugation at 400 g for 5 mins at 4° C. and supernatants discarded. 25 μL of each test antibody or control antibody was added to the cells and incubated for 30 minutes at 4° C. Cells were washed twice in 100 μL FACS buffer followed by centrifugation at 400 g for 5 mins at 4° C.
(§2) For detection, 50 μL of secondary antibody (Table 2) was added to relevant samples. Commercially available antibodies that bound to transfected CXCR family members were used as positive controls to ensure that the cells were expressing the receptors. Cells were washed twice in 200 μL of FACS buffer followed by centrifugation at 400 g for 5 mins at 4° C. Before sample acquisition, cells were resuspended in 100 μL of FACS buffer. Samples were acquired using the high throughput sampler on a FACSCanto™ II cytometer (Beckton-Dickinson).
Each heavy chain was co-expressed with each light chain to produce a sequence optimized antibody variant. Antibodies were purified and tested for CXCR2 binding activity as described in General Methods.

[2] = target: T1, human CXCR2; assay: cell-based or functional assay
[3] = target: T1, human CXCR2; assay: flow cytometry, CXCR2-transfected Expi293F cells; remark: listed apart in the source
Protocol: as §1, §2
Each variant heavy chain was co-expressed with the parental light chain and vice versa.

| Binder | EC50 [1] [nM] | Fold Improvement over 4A8 WT [1] [fold] | IC50, CXCL1, Tango assay [2] [nM] | IC50, CXCL8, Tango assay [2] [nM] | Fold change in binding relative to BKO-4A8 [3] [fold] |
| --- | --- | --- | --- | --- | --- |
| BKO-4A8 combinatorial variant 10c (antibody, human IgG4 S228P, lambda, V domains shown, IgG4 S228P, lambda) VH: EVQLLESGGGLVQPGGSLRLSCAASGFTFSSSTMSWVRQAPGKGLEWVSAISGRGRNTYYADSVKGRFTISRDNSRNTLYLQMNSLRAEDTAVYYCAKQKGYWGQGILVTVSS VL: QSALTQPPSASGSPGQSVTISCIGTSSDVGGYNYVSWYQQHPGKAPKLMIYEVSKRPSGVPDRFSGSKSGNTASLTVSGLQAEDEADYYCSSYAGSNNFGVFGGGTKLTVLG | 0.5 | 1 |  |  |  |
| BKO-4A8 variant VH I94K (antibody, human IgG4 S228P, lambda, V domains shown, IgG4 S228P, lambda; parental light chain; also called 4A8 VH I94K) VH: EVQLLESGGGLVQPGGSLRLSCAASGFTFSSSTMSWVRQAPGKGLEWVSAISGRGRNTYYADSVKGRFTISRDNSRNTLYLQMNSLRAEDTAVYYCAKQMGYWGQGILVTVSS VL: QSALTQPPSASGSPGQSVTISCIGTSSDVGGYNYVSWYQQHPDKAPKLMIYEVNKRPSGVPDRFSGSKSGNTASLTVSGLQAEDEADYYCSSYAGNNNFGVFGGGTKLTVLG |  |  | 0.078 | 0.071 | 0.7 |
| BKO-4A8 combinatorial variant 9c (antibody, human IgG4 S228P, lambda, V domains shown, IgG4 S228P, lambda) VH: EVQLLESGGGLVQPGGSLRLSCAASGFTFSSSTQSWVRQAPGKGLEWVSAISGRGRSTYYADSVKGRFTISRDNSKNTLYLQMNSLRAEDTAVYYCAIQKGYWGQGILVTVSS VL: QSALTQPPSASGSPGQSVTISCIGTSSDVGGYNYVSWYQQHPGKAPKLMIYEVSKRPSGVPDRFSGSKSGNTASLTVSGLQAEDEADYYCSSYAGSNNFGVFGGGTKLTVLG | 6.4 | 0.14 |  |  |  |
| BKO-4A8 combinatorial variant 6c (antibody, human IgG4 S228P, lambda, V domains shown, IgG4 S228P, lambda) VH: EVQLLESGGGLVQPGGSLRLSCAASGFTFSSSTQSWVRQPPGKGLEWVSAISGRGRSTYYADSVKGRFTISRDNSKNTLYLQMNSLRAEDTAVYYCAKQKGYWGQGILVTVSS VL: QSALTQPPSASGSPGQSVTISCIGTSSDVGGYNYVSWYQQHPGKAPKLMIYEVSKRPSGVPDRFSGSKSGNTASLTVSGLQAEDEADYYCSSYAGSNNFGVFGGGTKLTVLG | 0.9 | 0.44 |  |  |  |
| BKO-4A8 combinatorial variant 6b (antibody, human IgG4 S228P, lambda, V domains shown, IgG4 S228P, lambda) VH: EVQLLESGGGLVQPGGSLRLSCAASGFTFSSSTQSWVRQPPGKGLEWVSAISGRGRSTYYADSVKGRFTISRDNSKNTLYLQMNSLRAEDTAVYYCAKQKGYWGQGILVTVSS VL: QSALTQPPSASGSPGQSVTISCIGTSSDVGGYNYVSWYQQHPDKAPKLMIYEVSKRPSGVPDRFSGSKSGNTASLTVSGLQAEDEADYYCSSYAGSNNFGVFGGGTKLTVLG | 0.4 | 1 |  |  |  |
| BKO-4A8 combinatorial variant 7b (antibody, human IgG4 S228P, lambda, V domains shown, IgG4 S228P, lambda) VH: EVQLLESGGGLVQPGGSLRLSCAASGFTFSSSTQSWVRQPPGKGLEWVSAISGRGRSTYYADSVKGRFTISRDNSRNTLYLQMNSLRAEDTAVYYCAKQKGYWGQGILVTVSS VL: QSALTQPPSASGSPGQSVTISCIGTSSDVGGYNYVSWYQQHPDKAPKLMIYEVSKRPSGVPDRFSGSKSGNTASLTVSGLQAEDEADYYCSSYAGSNNFGVFGGGTKLTVLG | 0.8 | 0.63 |  |  |  |
| BKO-4A8 combinatorial variant 4b (antibody, human IgG4 S228P, lambda, V domains shown, IgG4 S228P, lambda) VH: EVQLLESGGGLVQPGGSLRLSCAASGFTFSSSTQSWVRQPPGKGLEWVSAISGRGRSTYYADSVKGRFTISRDNSRNTLYLQMNSLRAEDTAVYYCAIQKGYWGQGILVTVSS VL: QSALTQPPSASGSPGQSVTISCIGTSSDVGGYNYVSWYQQHPDKAPKLMIYEVSKRPSGVPDRFSGSKSGNTASLTVSGLQAEDEADYYCSSYAGSNNFGVFGGGTKLTVLG | 0.4 | 1.25 |  |  |  |
| BKO-4A8 combinatorial variant 7c (antibody, human IgG4 S228P, lambda, V domains shown, IgG4 S228P, lambda) VH: EVQLLESGGGLVQPGGSLRLSCAASGFTFSSSTQSWVRQPPGKGLEWVSAISGRGRSTYYADSVKGRFTISRDNSRNTLYLQMNSLRAEDTAVYYCAKQKGYWGQGILVTVSS VL: QSALTQPPSASGSPGQSVTISCIGTSSDVGGYNYVSWYQQHPGKAPKLMIYEVSKRPSGVPDRFSGSKSGNTASLTVSGLQAEDEADYYCSSYAGSNNFGVFGGGTKLTVLG | 1 | 0.5 |  |  |  |
| BKO-4A8 combinatorial variant 5b (antibody, human IgG4 S228P, lambda, V domains shown, IgG4 S228P, lambda) VH: EVQLLESGGGLVQPGGSLRLSCAASGFTFSSSTQSWVRQPPGKGLEWVSAISGRGRSTYYADSVKGRFTISRDNSKNTLYLQMNSLRAEDTAVYYCAIQKGYWGQGILVTVSS VL: QSALTQPPSASGSPGQSVTISCIGTSSDVGGYNYVSWYQQHPDKAPKLMIYEVSKRPSGVPDRFSGSKSGNTASLTVSGLQAEDEADYYCSSYAGSNNFGVFGGGTKLTVLG | 0.4 | 1.25 |  |  |  |

Other lines, results leading:

| EC50 [1] [nM] | Fold Improvement over 4A8 WT [1] [fold] | IC50, CXCL1, Tango assay [2] [nM] | IC50, CXCL8, Tango assay [2] [nM] | Fold change in binding relative to BKO-4A8 [3] [fold] | Binder |
| --- | --- | --- | --- | --- | --- |
| 0.2 | 2 |  |  |  | BKO-4A8 combinatorial variant 3c (antibody, human IgG4 S228P, lambda, V domains shown, IgG4 S228P, lambda) VH: EVQLLESGGGLVQPGGSLRLSCAASGFTFSSSTQSWVRQPPGKGLEWVSAISGRGRSTYYADSVKGRFTISRDNSKNTLYLQMNSLRAEDTAVYYCAIQMGYWGQGILVTVSS VL: QSALTQPPSASGSPGQSVTISCIGTSSDVGGYNYVSWYQQHPGKAPKLMIYEVSKRPSGVPDRFSGSKSGNTASLTVSGLQAEDEADYYCSSYAGSNNFGVFGGGTKLTVLG |
|  |  | 0.186 | 0.107 | 0.8 | BKO-4A8 variant VH M34H (antibody, human IgG4 S228P, lambda, V domains shown, IgG4 S228P, lambda; parental light chain; also called 4A8 VH M34H) VH: EVQLLESGGGLVQPGGSLRLSCAASGFTFSSSTHSWVRQAPGKGLEWVSAISGRGRNTYYADSVKGRFTISRDNSRNTLYLQMNSLRAEDTAVYYCAIQMGYWGQGILVTVSS VL: QSALTQPPSASGSPGQSVTISCIGTSSDVGGYNYVSWYQQHPDKAPKLMIYEVNKRPSGVPDRFSGSKSGNTASLTVSGLQAEDEADYYCSSYAGNNNFGVFGGGTKLTVLG |
| 0.3 | 3 |  |  |  | BKO-4A8 combinatorial variant 9b (antibody, human IgG4 S228P, lambda, V domains shown, IgG4 S228P, lambda) VH: EVQLLESGGGLVQPGGSLRLSCAASGFTFSSSTQSWVRQAPGKGLEWVSAISGRGRSTYYADSVKGRFTISRDNSKNTLYLQMNSLRAEDTAVYYCAIQKGYWGQGILVTVSS VL: QSALTQPPSASGSPGQSVTISCIGTSSDVGGYNYVSWYQQHPDKAPKLMIYEVSKRPSGVPDRFSGSKSGNTASLTVSGLQAEDEADYYCSSYAGSNNFGVFGGGTKLTVLG |
| 0.4 | 1.25 |  |  |  | BKO-4A8 combinatorial variant 5c (antibody, human IgG4 S228P, lambda, V domains shown, IgG4 S228P, lambda) VH: EVQLLESGGGLVQPGGSLRLSCAASGFTFSSSTQSWVRQPPGKGLEWVSAISGRGRSTYYADSVKGRFTISRDNSKNTLYLQMNSLRAEDTAVYYCAIQKGYWGQGILVTVSS VL: QSALTQPPSASGSPGQSVTISCIGTSSDVGGYNYVSWYQQHPGKAPKLMIYEVSKRPSGVPDRFSGSKSGNTASLTVSGLQAEDEADYYCSSYAGSNNFGVFGGGTKLTVLG |
| 0.3 | 1.67 |  |  |  | BKO-4A8 combinatorial variant 10b (antibody, human IgG4 S228P, lambda, V domains shown, IgG4 S228P, lambda) VH: EVQLLESGGGLVQPGGSLRLSCAASGFTFSSSTMSWVRQAPGKGLEWVSAISGRGRNTYYADSVKGRFTISRDNSRNTLYLQMNSLRAEDTAVYYCAKQKGYWGQGILVTVSS VL: QSALTQPPSASGSPGQSVTISCIGTSSDVGGYNYVSWYQQHPDKAPKLMIYEVSKRPSGVPDRFSGSKSGNTASLTVSGLQAEDEADYYCSSYAGSNNFGVFGGGTKLTVLG |
|  |  | 0.242 | 0.0776 | 1 | BKO-4A8 variant VH M34Q (antibody, human IgG4 S228P, lambda, V domains shown, IgG4 S228P, lambda; parental light chain; also called 4A8 VH M34Q) VH: EVQLLESGGGLVQPGGSLRLSCAASGFTFSSSTQSWVRQAPGKGLEWVSAISGRGRNTYYADSVKGRFTISRDNSRNTLYLQMNSLRAEDTAVYYCAIQMGYWGQGILVTVSS VL: QSALTQPPSASGSPGQSVTISCIGTSSDVGGYNYVSWYQQHPDKAPKLMIYEVNKRPSGVPDRFSGSKSGNTASLTVSGLQAEDEADYYCSSYAGNNNFGVFGGGTKLTVLG |
|  |  | 0.14 | 0.126 | 1.5 | BKO-4A8 variant VH M96A (antibody, human IgG4 S228P, lambda, V domains shown, IgG4 S228P, lambda; parental light chain; also called 4A8 VH M96A) VH: EVQLLESGGGLVQPGGSLRLSCAASGFTFSSSTMSWVRQAPGKGLEWVSAISGRGRNTYYADSVKGRFTISRDNSRNTLYLQMNSLRAEDTAVYYCAIQAGYWGQGILVTVSS VL: QSALTQPPSASGSPGQSVTISCIGTSSDVGGYNYVSWYQQHPDKAPKLMIYEVNKRPSGVPDRFSGSKSGNTASLTVSGLQAEDEADYYCSSYAGNNNFGVFGGGTKLTVLG |
| 0.4 | 1.25 |  |  |  | BKO-4A8 combinatorial variant 4c (antibody, human IgG4 S228P, lambda, V domains shown, IgG4 S228P, lambda) VH: EVQLLESGGGLVQPGGSLRLSCAASGFTFSSSTQSWVRQPPGKGLEWVSAISGRGRSTYYADSVKGRFTISRDNSRNTLYLQMNSLRAEDTAVYYCAIQKGYWGQGILVTVSS VL: QSALTQPPSASGSPGQSVTISCIGTSSDVGGYNYVSWYQQHPGKAPKLMIYEVSKRPSGVPDRFSGSKSGNTASLTVSGLQAEDEADYYCSSYAGSNNFGVFGGGTKLTVLG |
